Test results from patent publication US20210275669A1.

Assays:
[1] = target: CTLA-4 on PATHHUNTER CTLA4 Jurkat cells, P16410; test: cell-based or functional assay
[2] = target: PD-1 on PATHHUNTER PD-1 Jurkat cells, Q15116; test: cell-based or functional assay
Chain of PD-1 on PATHHUNTER PD-1 Jurkat cells, Q15116 (Q15116 25-288 limits assumed): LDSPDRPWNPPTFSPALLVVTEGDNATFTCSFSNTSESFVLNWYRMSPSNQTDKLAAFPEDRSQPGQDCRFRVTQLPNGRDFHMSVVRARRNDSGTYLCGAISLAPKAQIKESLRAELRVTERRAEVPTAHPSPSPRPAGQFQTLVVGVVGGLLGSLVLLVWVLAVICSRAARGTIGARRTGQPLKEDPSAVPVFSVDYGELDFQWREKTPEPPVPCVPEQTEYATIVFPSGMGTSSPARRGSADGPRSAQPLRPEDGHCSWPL

Chain of CTLA-4 on PATHHUNTER CTLA4 Jurkat cells, P16410 (P16410 36-223 limits assumed): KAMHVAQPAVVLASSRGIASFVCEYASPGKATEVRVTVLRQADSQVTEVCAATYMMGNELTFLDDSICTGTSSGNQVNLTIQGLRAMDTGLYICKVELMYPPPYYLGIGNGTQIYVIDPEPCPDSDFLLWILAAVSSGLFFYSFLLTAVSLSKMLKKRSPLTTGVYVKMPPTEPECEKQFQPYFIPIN

CRRTSTGQISTLRVNITAPLSQ (modifications not checked) [peptide LD01]
% inhibition (PATHHUNTER CTLA4 assay; 100 µM; Study 2) [1]: 51%
% inhibition (PATHHUNTER CTLA4 assay; 100 µM; Study 4) [1]: 16%
% inhibition (PATHHUNTER CTLA4 assay; 100 µM; Study 6) [1]: 46%
% inhibition (PATHHUNTER PD-1 assay; 100 µM; Study 1) [2]: 50.5%
% inhibition (PATHHUNTER PD-1 assay; 100 µM; Study 2) [2]: 79%
% inhibition (PATHHUNTER PD-1 assay; 100 µM; Study 4) [2]: 65%
% inhibition (PATHHUNTER PD-1 assay; 100 µM; Study 5) [2]: 24%
% inhibition (PATHHUNTER PD-1 assay; 100 µM; Study 6) [2]: 83%
